From JP2008232916A

Legend:
[1] = target: T1, 配列番号2のアルファヘリカルペプチド (second helix peptide), displayed on 15 nm gold particles; assay: gold nanoparticle aggregation: 500 nM free SEQ 1 added to mixed SEQ 2 and SEQ 3 particles; the read-out belongs to the three-peptide complex
T1 sequence (peptide): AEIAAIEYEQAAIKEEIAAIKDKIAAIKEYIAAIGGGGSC

[2] = target: 配列番号3のアルファヘリカルペプチド (third helix peptide), displayed on 15 nm gold particles; assay: as above
[3] = target: T1, 配列番号2のアルファヘリカルペプチド (second helix peptide), displayed on 15 nm gold particles; assay: gold nanoparticle aggregation: 100 µl E. coli lysate supernatant added to 1 ml mixed SEQ 2 and SEQ 3 particles; the read-out belongs to the three-peptide complex
[4] = target: 配列番号3のアルファヘリカルペプチド (third helix peptide), displayed on 15 nm gold particles; assay: as above
[5] = target: T2, 配列番号16のアルファヘリカルペプチド (peptide containing the second helix peptide of the heterodimer), displayed on 15 nm gold particles; assay: gold nanoparticle aggregation: 500 nM free SEQ 15 added to SEQ 16 particles, absorption spectrum
T2 sequence (peptide): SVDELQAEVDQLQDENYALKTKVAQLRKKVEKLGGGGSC

B1: 配列番号1で示されるアルファヘリカルペプチド (first helix peptide of the heterotrimeric alpha-helical coiled coil) (peptide)
peptide: AEIAAIKYKQAAIKNEIAAIKQEIAAIEQMIAAI
Q: How did the absorption maximum of the gold colloid after addition (525 nm before) [1] turn out when B1 was run?
A: 555 nm

Q: And the absorption maximum of the gold colloid after addition (525 nm before) [2]?
A: 555 nm

B2: アルカリフォスファターゼ(配列番号5)と配列番号1のアルファヘリックスとの融合ペプチド(配列番号8) (enzyme)
chain: RTPEMPVLENRAAQGDITAPGGARRLTGDQTAALRDSLSDKPAKNIILLIGDGMGDSEITAARNYAEGAGGFFKGIDALPLTGQYTHYALNKKTGKPDYVTDSAASATAWSTGVKTYNGALGVDIHEKDHPTILEMAKASGLATGNVSTAELQDATPAALVAHVTSRKCYGPSATSEKCPGNALEKGGKGSITEQLLNARADVTLGGGAKTFAETATAGEWQGKTLREQAQARGYQLVNDAASLNAVTEANQQKPLLGLFADGNMPVRWLGPKATYHGNIDKPAVTCTPNPQRNDSVPTLAQMTDKAIELLSKNEKGFFLQVEGASIDKQDHAANPCGQIGETVDLDEAVQRALEFAKKDGNTLVIVTADHAHASQIVAPDTKAPGLTQALNTKDGAVMVMSYGNSEEDSQEHTGSQLRIAAYGPHAANVVGLTDQTDLFYTMKAALGLKGGGSGGGSGGGSLVPRGSAEIAAIKYKQAAIKNEIAAIKQEIAAIEQMIAAI
Q: What does the source list for B2?
A: absorption maximum of the gold colloid after addition [3]: 555 nm; absorption maximum of the gold colloid after addition [4]: 555 nm

B3: 配列番号15で示されるペプチド (first helix peptide of a heterodimer, SEQ ID NO 13, fused in tandem to both ends of the linker SEQ ID NO 14) (peptide)
peptide: TVAQLEEKVKTLRAQNYELKSRVQRLREQVAQLAGGGGSGGGGSGGGGSTVAQLEEKVKTLRAQNYELKSRVQRLREQVAQLA
Q: How did the absorption maximum of the gold colloid after addition (about 525 nm before) [5] turn out when B3 was run?
A: 550 nm
